Read-outs that look alike come from different tables or passages of the source. Numbered stars: 1 amine (or outer) side, 2 acyl side, 3 side chain; on linkers, the order of the positions; unused ones are H or OH. Bridge positions count the residues as written; N and C are the ends. Square brackets hold non-standard residues; d marks the D form. Peptide text beside a SMILES is read from it. * marks the point of attachment. X1 = COc1cc2cc(c1Cl)N(C)C(=O)C[C@H](OC(=O)[C@H](C)N(C)C(=O)CCSSC(C)CCC(=O)*)[C@]1(C)O[C@H]1[C@H](C)[C@@H]1C[C@@](O)(NC(=O)O1)[C@H](OC)/C=C/C=C(\C)C2; 1Nal = N[C@@H](Cc1cccc2ccccc12)C(=O)O; TBMB = c1c(C[*:1])cc(C[*:3])cc1C[*:2]; Tle = CC(C)(C)[C@H](N)C(=O)O; βAla = NCCC(=O)O; Sar = CNCC(=O)O
Tests used:
[1] = Stability in whole blood in vitro, monkey; format: in vitro ADME; conditions: 37° C.
Protocol: (§1) The stability of BT1718 was assessed in plasma and whole blood from humans, monkey, dog, mouse and rat. […] The mechanism for the difference in stability of the BT1718 peptide in whole blood between the different species is unknown.

[2] = Crl:WI(Han) rat non-GLP tox study toxicokinetics; format: in vivo, Crl: WI(Han) rats; conditions: male, plasma, iv
[3] = Non-GLP toxicity studies, rat; format: in vivo
Protocol: In a GLP-compliant study in Cynomolgus monkeys, the highest non-severely toxic dose (HNSTD) of BT1718 was established to be 18 mg/m^2 administered twice weekly, equivalent to a human dose of 0.48 mg/kg. In a GLP-compliant study in the rat, the MTD was not reached with the highest administered dose 6 mg/m^2 twice weekly. At this dose level, there was kidney toxicity (with no effect on clinical condition) and also testicular toxicity. After 28 days off-dose, there was evidence of partial recovery of kidney-related findings, but no recovery of testicular effects at this dose level. […] Therefore, the MTD for rat for twice weekly dosing was considered to be between 1 and 1.5 mg/kg.

[4] = tested on: SNU-16; assay: In vitro cytotoxicity (CellTiter-Glo) SNU-16; format: cell-based; conditions: SNU-16, Gastric
Description: Table 1 and Table 2 Notes: in general regression and stable disease correlated with the in vitro cytotoxicity and MT1-MMP expression. Female BALB/c mice n=3/group animals dosed twice per week except EBC-1 three per week. Tumor growth inhibition (TGI) (%)=[1−(Ti−T0)/(Vi−V0)]×100; Ti is the average tumor volume of a treatment group on a given day, TO is the average tumor volume of the treatment group on the day of treatment start, Vi is the average tumor volume of vehicle control group on the same day with Ti, and V0 is the average tumor volume of vehicle group on the day of treatment start. A one-way ANOVA was performed to compare tumor volume among groups, and when a significant F-statistics (a ratio of treatment variance to the error variance) was obtained, comparisons between groups were carried out with Games-Howell test. All data were analyzed using GraphPad Prism.* p<0.05, ** p<0.01, *** p<0.001. In vitro cytotoxicity was measured by CellTiter-Glo®, MT1-MMP membrane H score from immunohistochemistry staining, NM not measured. Tumor size on Day 1 of dosing.

[5] = Plasma protein binding, human; format: in vitro ADME
Protocol: Plasma protein binding of BT1718 was also assessed. The mean plasma protein binding of the BT1718 peptide ranged from 87% to 98%, with the free fraction of BT1718 being 13% in human, 2.6% in rats, 7.5% in mice, 3.8% in monkey and 1.5% in dog plasma, the results had no correlation to the plasma and whole blood stability data. […] Plasma protein binding of unconjugated DM1, has previously been reported, with the unbound fraction being 7% in human and monkey and 3% in rat.

[6] = Stability in whole blood in vitro, human; format: in vitro ADME; conditions: 37° C.
Protocol: as §1

[7] = LC-MS/MS quantification of DM1 in patient tumor samples; format: in vivo, patients; conditions: three patient tumor samples
Protocol: A quantitative high performance liquid chromatography-tandem mass spectrometry (LC-MS/MS) method for the quantification of DM1 in tissue samples was developed.
DM1 was administered as complexed with a bicyclic peptide in […]. In order to determine the concentration of the free DM1 the conjugated molecule was reduced and subsequently derivatized with vinyl pyridine.
The same sample preparation procedure used for PK determination in the GLP pre-clinical studies, is applied for the determination of DM1 in tissue samples, In short: after tissue homogenization samples were reduced with TCEP prior derivatization by vinyl-pyiridine. […]
The homogenization method was optimized as follows: • 1) Thaw the tissue samples at room temperature. • 2) Weight the desired amount of tissue in a Precellys 2 mL Reinforced tube on an Analytical Balance. • 3) Use the weight of the tissue to calculate the volume of solution. […] Homogenization solution: (NaCl (0.9%): SDS (0.2 mg/mL) (50:50 v/v %)) • 4) Add the calculated amount of solution to the tissue. • 5) Vortex for approximately 5 seconds. • 6) Pre-cool the samples in a wet ice bath for approximately 8 minutes • 7) Run the Precellys-24 Dual homogenizer at 5000 rpm in five sessions of 40 seconds. • 8) Centrifuge the homogenate samples 3 minutes at 3000 rpm at 4° C. using a 5810-R centrifuge.

[8] = Stability in plasma in vitro, human; format: in vitro ADME; conditions: 37° C.
Protocol: as §1

[9] = Repeat dose toxicokinetics, rat and monkey; format: in vivo; conditions: both sexes, plasma, intravenous, rat or monkey, irrespective of dose, read-out: Plasma t1/2
Description: In a repeat dose experiment with BT1718 no significant gender-related differences in the TK parameters for the rat or monkey were noted. Exposure in both the rat and monkey increased approximately linearly with dose and was maintained for 28 days on repeat dosing. […] Plasma clearance and volume of distribution were similar across BT1718 dose and consistent with the PK studies.

[10] = Non-GLP toxicity studies, dog; format: in vivo
Description: These include in vitro tissue microarray in human, rat and monkey tissues and in vitro and in vivo assessment of immunogenicity. In vivo assessments include single dose toxicity in mice and rats, multiple dose range finding studies in mice, rats, dogs and monkeys (non-GLP) and GLP-compliant multiple dose studies in rats and monkeys consisting of 28-day on study phase with a 28-day recovery period.

[11] = ECG, respiratory plethysmography and blood pressure (GLP safety pharmacology); format: in vivo; conditions: monkeys 0.2, 0.5, 1 and 1.5 mg/kg twice weekly
Protocol: As part of the Good Laboratory Practice (GLP)-compliant toxicity studies, a core battery of safety pharmacology tests were performed. […] Electrocardiogram (ECG) and respiratory plethysmography measurements were taken in monkeys dosed at 0.2, 0.5, 1 and 1.5 mg/kg (2.4, 6, 12 and 18 mg/m^2 respectively) twice weekly on Day 4, Day 22 (following 2nd and 7th dose) and in the recovery period (for animals dosed with 0, 6 and 12 mg/m^2 twice weekly). Blood pressure (BP) measurements were also evaluated in the same monkeys on Day 1 and Day 25 and in the recovery period. […] It is therefore concluded that BT1718 has no cardiac, respiratory or behavioral liability at the doses and schedule tested in the GLP toxicity studies.

[12] = dogs 1 mg/kg, 20 mg/m^2 twice weekly

## COc1cc2cc(c1Cl)N(C)C(=O)C[C@H](OC(=O)[C@H](C)N(C)C(=O)CCSSC(C)CCC(=O)NCCC(=O)N(C)CC(=O)N(C)CC(=O)N(C)CC(=O)N(C)CC(=O)N(C)CC(=O)N(C)CC(=O)N(C)CC(=O)N(C)CC(=O)N(C)CC(=O)N(C)CC(=O)N[C@@H](C)C(=O)N[C@H]1CSCc3cc4cc(c3)CSC[C@H](NC(=O)[C@@H](C)NC(=O)[C@H](Cc3cccc5ccccc35)NC(=O)[C@H](CCC(=O)O)NC(=O)[C@H](CC(N)=O)NC(=O)[C@@H](C)NC1=O)C(=O)N[C@@H](CCC(=O)O)C(=O)N[C@@H](CC(=O)O)C(=O)N[C@@H](Cc1ccccc1)C(=O)N[C@@H](Cc1ccc(O)cc1)C(=O)N[C@@H](CC(=O)O)C(=O)N[C@@H](C(C)(C)C)C(=O)N[C@H](C(N)=O)CSC4)[C@]1(C)O[C@H]1[C@H](C)[C@@H]1C[C@@](O)(NC(=O)O1)[C@H](OC)/C=C/C=C(\C)C2 (stereo partly shown) [BT1718] ({X1-βAla}-[Sar][Sar][Sar][Sar][Sar][Sar][Sar][Sar][Sar][Sar]AC[dA]NE[1Nal][dA]CEDFYD[Tle]C-NH2; linker 12-18-25 via TBMB (inferred))
[1]
  half-life: 2 to 4 h
[2]; 1.2 mg/m2, read-out: C0/Cmax
  Cmax: 100 ± 10 nM
[2]; 6 mg/m2, read-out: C0/Cmax
  Cmax: 400 ± 140 nM
[3]; non-GLP rat, 9 mg/m^2 twice weekly
  tolerability: not well tolerated
[3]; rat 5.03 mg/kg (30.2 mg/m^2) twice
  GI findings: Single cell necrosis of the ileum
[3]; rat, single administration of 40 mg/m^2
  bladder findings: Bladder epithelial degeneration
[3]; rats 1.5 mg/kg, 9 mg/m^2 twice weekly
  peripheral haematology: significant decreases in WBCs
[3]; rats 3.35 mg/kg, 20.1 mg/m^2 twice weekly
  hepatic findings: Elevated liver enzymes
[3]; rats >1 mg/kg, 6 mg/m^2 twice weekly
  renal findings: Moderate renal tubule degeneration and epithelial mitosis
[4]
  IC50: 19.5 nM
[5]; human plasma, read-out: free fraction
  fraction unbound: 0.13
[5]; range across human, rat, mouse, monkey and dog plasma, read-out: mean plasma protein binding
  fraction unbound: 0.02 to 0.13
[6]
  half-life: 2 to 4 h
[7]
  delivery of DM1 to tumor: delivery of DM1 to tumor in two patients
[8]
  half-life: > 6 h
[9]
  half-life: 0.2 to 0.56 h
[10]; dog 1 mg/kg (20 mg/m^2) twice weekly
  GI findings: Slight to moderate small intestinal degeneration
[10]; dog, 14 mg/m^2 twice weekly
  bladder findings: Bladder epithelial degeneration
[10]; [12]
  hepatic findings: Elevated liver enzymes
  peripheral haematology: significant decreases in WBCs
  renal findings: Moderate renal tubule degeneration and epithelial mitosis
[11]
  ECG, respiratory plethysmography, blood pressure findings: no BT1718 related findings

From patent US20200129630A1, “METHODS FOR TREATING CANCER” (BicycleRD Limited, priority 2018, published 2020)
